PMC7547064, “High-resolution cryo-EM structure of urease from the pathogen Yersinia enterocolitica” (Nature Communications, 2020)

B1: Yersinia enterocolitica urease ureC protein (enzyme)
chain: MPQISRQEYAGLFGPTTGDKIRLGDTNLFIEIEKDLRGYGEESVYGGGKSLRDGMGANNHLTRDNGVLDLVITNVTIVDARLGVIKADVGIRDGKIAGIGKSGNPGVMDGVTPGMVVGVSTDAISGEHLILTAAGIDSHIHLISPQQAYHALSNGVATFFGGGIGPTDGTNGTTVTPGPWNIRQMLRSVEGLPVNVGILGKGNSYGRGPLLEQAIAGVVGYKVHEDWGATANALRHSLRMADEMDIQVSVHTDSLNECGYVEDTIDAFEGRTIHTFHTEGAGGGHAPDIIRVASQPNVLPSSTNPTLPYGVNSQAELFDMIMVCHNLNPNVPADVSFAESRVRPETIAAENVLHDMGVISMFSSDSQAMGRVGENWLRVMQTANAMKASRGKLPEDAPGNDNFRVLRYVAKITINPAIAQGVSHVIGSVEVGKMADLVLWDPRFFGAKPKMVIKGGMINWAAMGDPNASLPTPQPVFYRPMFGAMGKTMQDTCVTFVSQAALDDGVKEKAGLDRQVIAVKNCRTISKHDLVRNDQTPNIEVDPETFAVKVDGVHATCEPIDTAAMNQRYFFG
modifications: carbamylated Lys222
notes: urease chain ureC of Yersinia enterocolitica; residues 2-327 and 335-572 were built in the cryo-EM model; Native enzyme purified from the bacterium, with two Ni2+ ions in the active site; also called α-subunit containing the active site; source: purified from Y. enterocolitica cultures (Sephacryl S-300, Mono Q, SEC)

Assays:
[1] = target: B1; assay: cryo-EM structure; single-particle cryo-EM of purified urease at 0.39 mg/ml, frozen in a buffer of pH 7.0; tetrahedral (T) symmetry imposed; map at 1.98 Å; no substrate or inhibitor; settings: both partners purified
[2] = target: the molecule itself; assay: as above

| Binder | binding result [1] | binding result [2] | stoichiometry N [2] |
| --- | --- | --- | --- |
| Yersinia enterocolitica urease ureA protein (natural protein, urease chain ureA of Yersinia enterocolitica; all residues of ureA (1-100) were built in the cryo-EM model; Native enzyme purified from the bacterium; source: purified from Y. enterocolitica cultures (Sephacryl S-300, Mono Q, SEC)) MQLTPREVEKLMIYTLSDVAFKRKARGLKLNYPEAVSIITETAMEGARDGKSVEDVMKEASKVLTKDDVMDGVADLIPNVQVEAIFTDGSRLVTVHDPIK | binds | binds | – |
| Yersinia enterocolitica urease ureB protein (natural protein, urease chain ureB of Yersinia enterocolitica; residues 31-162 were built in the cryo-EM model; the N-terminal extension was too disordered to be modelled; Native enzyme purified from the bacterium; source: purified from Y. enterocolitica cultures (Sephacryl S-300, Mono Q, SEC)) MSTKTNSTKATSEKTDSLKTNRGTKSSAGYSDQNIPLGGCILADTPITFNENKPVTKVKVRNTGDRPIQVGSHFHFFEANRALEFDRAAAYGKRLNISSTTAIRFEPGDETEVPLIPFGGKQTLYGFNNLVDGWTGEGVVPNSERPDKLEAIRRAAERGFKSSK | binds | binds | – |
| B1 | – | binds | – |
| Y. enterocolitica urease hetero-trimer formed by the three protein chains (ureA, ureB, ureC) (complex, carbamylated Lys222, urease chain ureA of Yersinia enterocolitica, as m1; residues 1-100 built; urease chain ureB of Yersinia enterocolitica, as m2; residues 31-162 built; urease chain ureC of Yersinia enterocolitica, as m3; residues 2-327 and 335-572 built; The asymmetric unit holds one copy each of ureA, ureB and ureC; Twelve such units form the holoenzyme, [[αβγ]3]4, with tetrahedral symmetry; also called basic …) chain 1: MQLTPREVEKLMIYTLSDVAFKRKARGLKLNYPEAVSIITETAMEGARDGKSVEDVMKEASKVLTKDDVMDGVADLIPNVQVEAIFTDGSRLVTVHDPIK chain 2: MSTKTNSTKATSEKTDSLKTNRGTKSSAGYSDQNIPLGGCILADTPITFNENKPVTKVKVRNTGDRPIQVGSHFHFFEANRALEFDRAAAYGKRLNISSTTAIRFEPGDETEVPLIPFGGKQTLYGFNNLVDGWTGEGVVPNSERPDKLEAIRRAAERGFKSSK chain 3: MPQISRQEYAGLFGPTTGDKIRLGDTNLFIEIEKDLRGYGEESVYGGGKSLRDGMGANNHLTRDNGVLDLVITNVTIVDARLGVIKADVGIRDGKIAGIGKSGNPGVMDGVTPGMVVGVSTDAISGEHLILTAAGIDSHIHLISPQQAYHALSNGVATFFGGGIGPTDGTNGTTVTPGPWNIRQMLRSVEGLPVNVGILGKGNSYGRGPLLEQAIAGVVGYKVHEDWGATANALRHSLRMADEMDIQVSVHTDSLNECGYVEDTIDAFEGRTIHTFHTEGAGGGHAPDIIRVASQPNVLPSSTNPTLPYGVNSQAELFDMIMVCHNLNPNVPADVSFAESRVRPETIAAENVLHDMGVISMFSSDSQAMGRVGENWLRVMQTANAMKASRGKLPEDAPGNDNFRVLRYVAKITINPAIAQGVSHVIGSVEVGKMADLVLWDPRFFGAKPKMVIKGGMINWAAMGDPNASLPTPQPVFYRPMFGAMGKTMQDTCVTFVSQAALDDGVKEKAGLDRQVIAVKNCRTISKHDLVRNDQTPNIEVDPETFAVKVDGVHATCEPIDTAAMNQRYFFG | – | – | 12 |
